Test results from patent US20170008934A1, “BACTERIALLY FORMED MICROCIN S, A NEW ANTIMICROBIAL PEPTIDE, EFFECTIVE AGAINST PATHOGENIC MICROORGANISMS, E.G. ENTEROHEMORRHAGIC ESCHERICHIA COLI (EHEC)” (SYMBIOGRUPPE GmbH & CO. KG, priority 2011, published 2017).

Test system: EHEC (86-24 O157:H7, O104:H4, O128:H2)
Experiment: in vitro adherence assay: inhibition of EHEC adherence to human intestinal epithelial cells (LOVO) after pre-incubation with test strains
Assay type: cell-based
Settings: ESBL-producing O104:H4 outbreak strain, O128:H2 and O157:H7 EHEC isolates; FIG. 5 (tested as producer strain E. coli G3/10)
Method: Enterohemorrhagic E. coli adhere to intestinal epithelial cells. In a second experiment, confluent monolayers of LOVO cells were pre-incubated with bacterial test strains at a multiplicity of infection (MOI) of 100:1 E. coli to host cells. The influence of EcN and E. coli G3/10 was tested. After two hours of incubation, cells were washed and infected with EHEC using an MOI of 100:1 EHEC to host cells. Three EHEC isolates were tested as indicator strains using the in vitro adherence assay. We used HUS-associated EHEC 86-24 serotype O157:H7 and two different isolates of the EHEC O104:H4 outbreak strain as well as an EHEC O128:H2 patient isolate. Since the EHEC O104:H4 isolates are ESBL producers, medical treatment is limited. Adherence efficiency in % are expressed as adherence of EHEC relative to adherence without any pre-incubation (negative control), which is set 100%. The data are the mean±SD of three separate experiments in duplicate wells.

B1: microcin S: new class IIa microcin, antimicrobial polypeptide of E. coli G3/10, SEQ ID NO: 7 (precursor with leader SEQ ID NO: 6) (protein, listed as Escherichia coli)
chain: NANSNYEGGGSRSRNTGARNSLGRNAPTHIYSDPSTVKCANAVFSGMVGGAIKGGPVGMTRGTIGGAVIGQCLSGGGNGNGGGNRAGSSNCSGSNVGGTCSR
inhibitory effect of EHEC: shows an inhibitory effect of EHEC
